assay: soluble on expression in E. coli; label from the status in PepcDB or PDB records

Sequence | soluble on expression in E. coli
MGSDKIHHHHHHVTSQAPVEVMTDIMTKFTSYIGKRLPTDIKEKLADLREAETNPMANVLFDSMAENQEAADKLNRPSCQDTGVIQYFITAGAKFPLLGELEEILRNATLGATKLGPLRHNAVEAFDEKNTGTNTGSRIPWLDWEIVPNDDGVIIDVYMAGGGCTLPGASTVLMPGQGYEGVVDFVFDVVTSRGINACPPLLIGVGVSTSAETAARLSKKAILRPVGSHHDNANAAKMETLLEDGLNELGIGPQGLTGNSSVMGVNIESSARHPSTIGVAVSTGCWAHRRGRIRFNADLSYEIVSHEGVVL | not soluble
MGSDKIHHHHHHVTVHGLPAPSADTALYQSIMEAGFTAFPERLANWRRFKAAQRGERLDYLPVKLDVEHVSRCNYRCTMCQVSDWPKMTRAADMTVGDFKSLLEQQIGVVEIKLQGMGEPLLAAESFFEMIRHARERHIWVRATTNGSLLHIKENYKGLVESDICEIQVSIDGARPETYEAIRRGGKFERVAENCRLLNAHAAQDGRERTRMWVVVQQGNLADLDLLPKAAAEMGFKRLTLSLDLTSWGQETWERNNEALDAHDLLPVEKAWALVEEGKRLGVEVTFWAIDSKYDWSDPAKLCPWPFERAYIASDMRVVPCCMIANPDVLDMGDARDLTGVWTGERMAEFRRAHLEGRIPEVCNSCYRDPPAP | not soluble
MGSDKIHHHHHHVVAVNRAVFLDRDGVINKDHGYVHQVDDFEYIEGVFEACLALKKMGYKLVVVTNQSGIARGMYSEDQFHSLTEWMDWNFADKGVDLDGIYYCPHHAEKGMGEYKVDCDCRKPKPGMLNDAAKFLKVDLSQSVMVGDKADDMQAAKAAGVPTRILVRSGKVIADSSDATIVLDSIADVPDYLKA | not soluble
MGSDKIHHHHHHYEKIYDVNHVCYYTLTSVELQKFVKTAEIITPLNADNKTTITKDTILVGNPEENPLTKKYIGFFKIKINKTFPGKNKGIIEKQIINGHTVILLAGSDIQGTYASIITFANLNDIPENPIICETSNKVNIYSTSLNSEYFRDFIEKNILTPKEIEKVKSLSYKLKGKDKKATIENIAKWVANNIKYDYDKCKKIESGKFSWDEYNTPSETVKTKKGVCLDYATLTSALLLNDNIIPYMLDVALYNTSSLKISSYHASVAVKIDNTYFVIDQQPYLIPINEYTAQTFEDNLRIASIVMFRVVKERDGIKLIKEKEVPGIAIYGDLINLLEMRFNN | not soluble
MGSEEYFKKGAIKVEIKSGALLISPSEFKERYLPTLQDMPVLAFVRNIEAPKSWYSYLISNIEDQKSSIFPTNLPRILEISRRYFSSVKNGIVVIDALEYLTIYNGFEAIAKFLATLRDFAILDNGTVIIITEKKAWKDREWALLTSLLGKLEHHHHHH | soluble
MGSHHHHHHDITSLYKKAGSAAAVLEENLYFGGSFTMDMAADIASDHFISRRVDIGRITLNVREKGSGPLMLFFHGITSNSAVFEPLMIRLSDRFTTIAVDQRGHGLSDKPETGYEANDYADDIAGLIRTLARGHAILVGHSLGARNSVTAAAKYPDLVRSVVAIDFTPYIETEALDALEARVNAGSQLFEDIKAVEAYLAGRYPNIPADAIRIRAESGYQPVDGGLRPLASSAAMAQTARGLRSDLVPAYRDVTKPVLIVRGESSKLVSAAALAKTSRLRPDLPVVVVPGADHYVNEVSPEITLKAITNFIDA | soluble
MGSQAAHMMSMDFEDFPVESAHRILTPRPTVMVTTVDEEGNINAAPFSFTMPVSIDPPVVAFASAPDHHTARNIESTHEFVINITPADIIERMWVTARDIPAGENELEAAGLAWTSSRRVKPPRIVEAPGHLECELLRMFEVGDHNLITGSVVSASVRSGAVKEGLLDVESVKPVLHVGGNKFVVGD | not soluble
MGSRRYDSRTTIFSPEGRLYQVEYALESISHAGTAIGIMASDGIVLAAERKVTSTLLEQDTSTEKLYKLNDKIAVAVAGLTADAEILINTARIHAQNYLKTYNEDIPVEILVRRLSDIKQGYTQHGGLRPFGVSFIYAGYDDRYGYQLYTSNPSGNYTGWKAISVGANTSAAQTLLQMDYKDDMKVDDAIELALKTLSKTTDSSALTYDRLEFATIRKGANDGEVYQKIFKPQEIKDILVKTGITKKDEDEEADEDMK | soluble
MGSSGGGGSGGGGVTADIGTGLADALTAPLDHKDKGLKSLTLEDSISQNGTLTLSAQGAEKTYGNGDSLNTGKLKNDKVSRFDFIRQIEVDGQLITLESGEFQVYKQSHSALTALQTEQEQDPEHSEKMVAKRRFRIGDIAGEHTSFDKLPKDVMATYRGTAFGSDDAGGKLTYTIDFAAKQGHGKIEHLKSPELNVDLAVAYIKPDEKHHAVISGSVLYNQDEKGSYSLGIFGEKAQEVAGSAEVETANGIHHIGLAAKQ | soluble
MGSSGMGVDANGKPIKRQPTTNNNNKKAGNNSNNQKKGNNQNNKNNKNQNGGNRNQNRQHHQPPMMQMVPPFGPMGPGGPGGPGFMGPPNGNMNFFNGQNRRNGSGKNNGNRNGAPPSGYNGPSANNVGQGAIGNNMNGAQPFAGPEPSMEVPGFGKNSNIHELFGKMIWRKMEQINDAALVDQLQNRIMNLIHDALASQNDKQQQQQQQQHQQGFNQQRGMPFGGPGNQNGPFGNNAGFQRF | not soluble
MGSSHHHHHHDYDIPTTENLYFQGHMKIGIMSDTHDHLPNIRKAIEIFNDENVETVIHCGDFVSLFVIKEFENLNANIIATYGNNDGERCKLKEWLKDINEENIIDDFISVEIDDLKFFITHGHHQSVLEMAIKSGLYDVVIYGHTHERVFEEVDDVLVINPGECCGYLTGIPTIGILDTEKKEYREIVL | soluble
MGSSHHHHHHGGTGENLYFQGGSGHPASLAAHAFGDASTRSPTHTLPSRCHLFLSLSLSTAAVRRSRASPPLAPTRRTHECLSASHTRTCRQSASFSPLEHPFSFSVAILSSTMPREIKTLKEFLAICSRKDARCVKVKHNPSATKFKVRCSRYLYTLVVNDKKKADKIERSIHPSVKKIAVTARSHAKTNAGSKQ | not soluble
MGSSHHHHHHGGTGENLYFQGGSGKIFSTLGNPGTLAATKPKKGEVVLASPEATVSKYKEAIKQHKKALKELHACTERFTHALAAVAASLQLLTSDTHIPVMVQSSGALASGIEEVQDGVLLQDLMEELDYSLSTRFKQIAEDQRELKESRERKSKAERTLMLLRSQCDKLQLKKDVDAKVQALYLAKTQKRDEHEVECTRLKAEFEDTFQDFTKRFGILVYEDMKGLTVHLHRVLSALSYQVRKCKDNIMAHPITPKPIAEMS | not soluble
MGSSHHHHHHGGTGENLYFQGGSGSSVTPTIPFKAWLKLHAKAICQALPLSLLIVVEARDLYYRATWDVAPVPPSKFEVGDVIAVCNRWYTLPTWSHVVYSWLSKVLLKSCWDDVGVISSVKNGTPHILYVDFHGVHEQPLATFLETRCPRGAAVRKLRRDEGVPSPSPAIADLFRKEVEMISVEPWFLFSASMRGGNEHKYYEFCVRMHEQRCKIRSMLQRRQSRPAIEAQQTSLKEMEVMRQHLAKFVEPVTHFHLYNGSLVASFFATYGLLDREMPSPSRYVPQDFAHTIPFLGATTLDEPIVFFRN | not soluble
MGSSHHHHHHGKTIFVIVPTNEEQVAFLEALAKQDELNFDWQNPPTEPGQPVVILIPSDMVEWFLEMLKAKGIPFTVYVEEGGSENLYFQGGGGGGAATVTDLKNAIKNELYRIDIGMTDFYSSLSVSPTVQQQYCTAAITSRAAGLSLTMESLSSPYGVLATEYGFLIYKDTFVFGPSIKLIGASAWPNGTLTTDIQSGRHILVPYLTNTVVFVTGVIENEDGRQNILPMMRLMMVDSYLCAHMHMNVANLYRKTFRTAFAELA | not soluble
MGSSHHHHHHGKTIFVIVPTNEEQVAFLEALAKQDELNFDWQNPPTEPGQPVVILIPSDMVEWFLEMLKAKGIPFTVYVEEGGSENLYFQGGGGGGCCSLLFFVYIAFSLIHTLHHLFLFSECNISADERMDVPSEDYDVSIMIKAIHEVQDVLTSRQFATFSEVDTEIGKTLKRYEAFGDGFERFHVNLTKDALQSNDLQKSLKDMDKRCQDRLRDCASSQKDQINDILPFIRNTSSILVHGSGNLLALTIACSIQEHEGVRFYICEGRPARKGYPHGSGEQLLEKVLATPEGMRLKDKLHKYCTIVPDSGVSSVMNSVDFVIMGAYCVTEHGGLVHSTGSLQIAIVAAFRNVPCYVLCETFKFAHIFPLSTDDLKQPENGAGEVVPLVEFVPPSMITLIFSEQGIMPPSAVADEMFRFHTAPSAPGKRR | not soluble
MGSSHHHHHHGKTIFVIVPTNEEQVAFLEALAKQDELNFDWQNPPTEPGQPVVILIPSDMVEWFLEMLKAKGIPFTVYVEEGGSENLYFQGGGGGGMDLDAFLSKNNKKSSKKVAKKSADEAALGGFGLETVPRVSTAAAKPITVANTGGSDASAAAGTASPLPAPEKTVAAPVVAVNLNFAGTTRSAKTWDAVKASQDSKRQEEVQAAAARKAKEEAEAAERKAAAGGDDDEVQLPESSPKETKVAKFVARGHRNATGAIGGGEGGAAAAASGRFAPHTQGLSLENLPTLEETFGNARKPSQSTASQSQSQQQPMSLPSQEQNGESAPAATPQESSSTPTSATAVAGSNKYVPPSKSSSTMESSTTLPSSPMPTRGSAGGSSAAAYRPPSGSSGVYKPPSMGAYRPPNASAGEAYKPPAPSAPSSGAGAYKPPTPGGASAGAYRPPASTGEAYKPPSSGGAGVYKPPSAGNSNAGAFKPSTAAGFSADTYKPPVAGSGSSAGAYKPPSAGGSAGVYKPPSKREA | soluble
MGSSHHHHHHHSSGRENLYFQGHMEGVRWAFSCGTWLPSRAEWLLAVRSIQPEEKERIGQFVFARDAKAAMAGRLMIRKLVAEKLNIPWNHIRLQRTAKGKPVLAKDSSNPYPNFNFNISHQGDYAVLAAEPELQVGIDIMKTSFPGRGSIPEFFHIMKRKFTNKEWETIRSFKDEWTQLDMFYRNWALKESFIKAIGVGLGFELQRLEFDLSPLNLDIGQVYKETRLFLDGEEEKEWAFEESKIDEHHFVAVALRKPDGSRHQDVPSQDDSKPTQRQFTILNFNDLMSSAVPMTPEDPSFWDCFCFTEEIPIRNGTKSLESG | soluble
MGSSHHHHHHSQDPDPMQSFADAKEFFQYSAGQWQSRRVTHHLPFRRAESGGSNIQVETLEKDDPRIIEICQMHDMDASLSVGGSYVTWAGTMQWDKDDENHEGSTVFALIPDADNPRQGKLLRERGYAEIVPVAGEYHLDHEDGLVLTTEYETMTIYERFWFANPDLRLRTSTVKRFGGFNTTTFCMEERIQTSPVTATAAAETNPLYAISGW | soluble
MGSSHHHHHHSQDPLVPRGSGSDYIIKEKTVLLQKKDSEGFGFVLRGAKAQTPIEEFTPTPAFPALQYLESVDEGGVAWRAGLRMGDFLIEVNGQNVVKVGHRQVVNMIRQGGNTLMVKVVMVTRHPDMDEA | soluble
MGSSHHHHHHSQDPTVPAQLQFSAKTLDGHDFHGESLLGKPAVLWFWAPWCPTCQGEAPVVGQVAASHPEVTFVGVAGLDQVPAMQEFVNKYPVKTFTQLADTDGSVWANFGVTQQPAYAFVDPHGNVDVVRGRMSQDELTRRVTALTSR | soluble
MGSSHHHHHHSSENLYFQGHMSDLPRISVAAPRLDGNERDYVLECMDTTWISSVGRFIVEFEKAFADYCGVKHAIACNNGTTALHLALVAMGIGPGDEVIVPSLTYIASANSVTYCGATPVLVDNDPRTFNLDAAKLEALITPRTKAIMPVHLYGQICDMDPILEVARRHNLLVIEDAAEAVGATYRGKKSGSLGDCATFSFFGNKIITTGEGGMITTNDDDLAAKMRLLRGQGMDPNRRYWFPIVGFNYRMTNIQAAIGLAQLERVDEHLAARERVVGWYEQKLARLGNRVTKPHVALTGRHVFWMYTVRLGEGLSTTRDQVIKDLDALGIESRPVFHPMHIMPPYAHLATDDLKIAEACGVDGLNLPTHAGLTEADIDRVIAALDQVLV | soluble

From the DeepSol protein solubility set
